From patent publication US20260258115A1 (MAPP BIOPHARMACEUTICAL, published 2026)

Molecular target: RSV fusion glycoprotein (RSV F) on RSV-A2 virus (respiratory syncytial virus, UniProt P03420 26-574)
Assay: cell-based or functional assay

Row | Binder | Neutralization IC50 (RSV subtype A) [µg/mL]
1 | ADI-41399 (antibody, V domains shown) VH: QVQLVQSGAEVKKPGASVKVSCKASGYTFTTFAIHWVRQAPGQRLEWMGWINAGNGNTKYSQKFQGRVTITRDTSASTAYMELSSLRSEDTAVYYCARPEISSSSLNEKDDYWGQGTLVTVSS VL: QPVLTQPASVSGSPGQSITISCTGTSSDVGAYDFVSWYQQHPGKAPKFMIYEVSHRPSGVSNRFSGSKSGNTASLTISGLQAEDEADYYCSSYTTSNTLVFGGGTKLTVL | > 25
2 | ADI-41424 (antibody, V domains shown) VH: QVQLVQSGAEVREPGASVKVSCKPSGYTFANYGISWVRQAPGQGLEWMAWISAYNGNTNYAPKVQGRVSVTTDSSTGIGYMELRSLRSDDTAVYYCVRDTPAIAGAATLDFWGQGTLVTVSS VL: DIVLTQSPLSLAVTPGQSASISCRSRQSHVFSDGNTYVSWFQQRPGRSPRRLIYRVSYRDSGVPDRFSGSGSGSDFTLRISRVEAEDVGVYYCMQGTHWPRTFGQGTKLEIK | 0.28
3 | ADI-41417 (antibody, V domains shown) VH: QVQLVESGGGLVKPGGSLRLSCAASGFTFSSYSMNWVRQAPGKGLEWVSSISAGSSYIYYADSLKGRFTISRDNAKNSLYLQMNSLRAEDTAVYYCARVNTHYYDSSAYHNFDSWGQGTLVTVSS VL: QPVVTQPPSVSGAPGQRVTISCTGSSSNIGAGYDVHWYQQLPGTAPKLLIYGNTNRPSGVPERFSGSKSGTSASLAITGLQAEDEADYYCQSYDTNLSAPWVFGGGTKLTVL | 0.71
4 | ADI-41437 (antibody, V domains shown) VH: QVQLVQSGGEVKKPGASVKVSCKASGYTFTHYGISWARQAPGQGIEWMGWINVHNGNTEYAQRFQGRVTMTTDTSTNTAYMEMTSLTSDDTAVYYCARDKIVVVVVPNYHGMDVWGQGTLVTVSS VL: not shown | > 25
5 | ADI-41396 (antibody, V domains shown) VH: EVQLVESGGGLVNPGGSLRLSCVVSGFAFSSYGMNWVRQAPGKGLEWVSSISASSSYIDYADSVKGRFIISRDNAKNSLHLQMNSLRAEDTAVYYCARLGYDSSTYYTNWFDPWGRGTLVTVSS VL: QSVVTQEPSVSGAPGQRVTISCTGSSSNIGTGYDVHWYQQLPGAAPKLLIYGNSNRPSGVPDRISGSKSGTSASLAITGLQAEDEADYYCQSYDSSLSGYVFGTGTKVTVL | 1.37
6 | ADI-41397 (antibody, V domains shown) VH: EVQLVESGGGLVKPGGSLRLSCAASGFKFSSYYLNWVRQAPGKGLEWVSSISGGSSYINYADSVKGRFTISRDNAKNTLDLQMSNLRAEDTAVYYCARVVGATGPLYFDLWGRGTLVTVSS VL: QSVLTQPPSVSGAPGQRVTISCTGSSSNIGAGYDVHWYQQFPGTAPKLLIYGNNNRPSGVPDRFSGSKSGTSASLAITGLQAEDEADYYCQSYDSSLSGYVFGAGTKVTVL | 0.09
7 | ADI-41433 (antibody, V domains shown) VH: EVQLLESGGGAVQPGRFLRLSCAASGFTFRSYGMHWVRQAPGKGLEWVAVISYDGSDKYYADSVKGRFTISRDNSKNTLFLLMNGLRAEDAAVYYCAKDIASAGTLRGSDVWGQGTMVTVSS VL: QPVLTQPRSVSGSPGQSVTISCTGTSSDVGGFNYVSWYQQHPGKAPKLMIYDVRVRPSGVPDRFSGSKSGNTASLTISGLQGEDEADYYCCSYTVTYTLVFGGGTKLTVL | > 25
8 | ADI-41386 (antibody, V domains shown) VH: QVQLVQSGAEVKKPGASVKVSCKASGYTFTGNYIHWVRQAPGQGLEWMGGINPNSGATNYARKFQGRISMTRDTSINTAYMEVSSLRSDDTATYYCARDAPPVVIPAAIHWFDAWGQGTLVTVSS VL: SYELTQPPSASGTPGQRVTISCSGSSSNIGRNTVNWYQQFSGTAPRLLIYRTNQRPSGVPDRFSGSKSGTSASLVISGLQSEDEADYYCASWHDTLNDVVFGGGTKLTVL | > 25
9 | ADI-41408 (antibody, V domains shown) VH: QVQLVESGAEVKKPGESLKISCRDSGYSFSSFWIGWVRQMPGKGLEWVGIIYPGDSDIRYSPSFQGRVTISADKSISTAYLQWRSLKASDSAMYYCARSEKLGSFDRWGQGTLVTVSS VL: DIQMTQSPSSLSASVGDRVTITCQANRDISNCLNWYQQRPGKAPELLIYDASYLETGVPSRFTGSGSGTDFTFTISSLQPEDIATYYCQQYDNLLFTFGPGTKVEIK | > 25
10 | ADI-41423 (antibody, V domains shown) VH: QVQLVESGGGLVKPGGSLRLSCAASGFTFSSYSMNWVRQAPGKGLEWVSSISSSSSYIYYADSVKGRFTISRDNAKNSLYLQMNSLRAEDTAVYYCARDPSSSWNRNDYWGQGTLVTVSS VL: QSVLIQPASVSGSPGQSITISCTGTSSDVGGYNYVSWYQQHPGKAPKLMIYDVSNRPSGVSNRFSGSKSGNTASLTISGLQAEDEADYYCSSYTSSSTLVVFGGGTKVTVL | > 25
11 | ADI-41438 (antibody, V domains shown) VH: QVQLVQSGAEMRRPGSSVRLPCKASGYTFVSHTIVWVRQAPGQGLEWMGGIIPSLRTPNYAQNFQDRLTITADESARTAYMELSSLTSNDTAVYYCARETFQGGYYLDYWGQGTLVTVSS VL: EIVMTQSPGTLSVSPGDTAALSCRASQSVGRNLAWYQQKPGQAPRLLIFGASTRAADIPGRFSGSGSGTEFTLTITSLQSEDFAVYYCQQYNKWPPYTFGQGTKVEIK | > 25
12 | ADI-41382 (antibody, V domains shown) VH: EVQLVESGGGLVQPGRSLRLSCAASGFTFDDYAMHWVRQAPGKGLEWVSGISWSGDTRGYAESVKGRFTITRDNAKKYLYLQMNSLRAEDTAFYYCAKDAYYFGSGNEKFYYGMDVWGQGTTVTVSS VL: not shown | 0.02
13 | ADI-41390 (antibody, V domains shown) VH: EVQLVESGGGLVKPGGSLRLSCAASGFSSSSYFMNWVRQAPGKGPEWVSSISGSSSFINYADSVKGRFTISRDNAKNSLYLQMNSLRAEDTAVYYCARAVLPAGVGGYWFDSWGQGTLVTVSS VL: QSVVTQPPSVSGAPGQRVTISCTGSSSNIGAGYDVHWYQHLPGRAPKLLIYGNSNRPSGVPDRFSGSKSGTSASLVITGLQAEDEADYCCQSYDSSLSGAVFGGGTQLTVL | 0.62
14 | ADI-41394 (antibody, V domains shown) VH: QVQLVQSGAEVKKPGSSVKVSCKASGGTFNTYAISWVRQAPGQGLEWMGGIIPILGVSNYAQRFQGRVTFSADELTNTAYMELSSLRSEDTAVYFCARPVGAYTLGDAFEIWGRGTTVTVSS VL: QPVLTQSSSASASLGSSVKLTCTLSSGHSDFIIAWHQQQPGKAPRYLMKFEGNGRYSKGSGIPDRFSGSSSGADRCLTISNLQSEDEADYYCETWDSNTHVVFGGGTKLTVL | > 25
15 | ADI-41409 (antibody, V domains shown) VH: QVQLVQSGAEVKKPGASVKVSCKASGYTFTNYGISWVRQAPGQGLEWMGWISAYNGNTNYAQKFQDRVTMTTDTSTSTAYMELRSLRYDDTAVYYCARDTPGEYASAMFDHWGQGTLVTVSS VL: DIVMTQSPLSLPVTLGQPASISCRSSQSLVYSDGNTYLSWFQQRPGQSPRRLIYKVSNRDSGVPDRFSGSGSGTDFTLKISGVEAEDVGVYYCMQGTHWPPTFGQGTKLEIK | 0.29
